Two molecules from patent US20230265211A1 (published 2023) can be followed below.

Test [1] deals with T1, recombinant human PS (rhPS) (human, UniProt P07225 42-676).
T1 sequence (looked up): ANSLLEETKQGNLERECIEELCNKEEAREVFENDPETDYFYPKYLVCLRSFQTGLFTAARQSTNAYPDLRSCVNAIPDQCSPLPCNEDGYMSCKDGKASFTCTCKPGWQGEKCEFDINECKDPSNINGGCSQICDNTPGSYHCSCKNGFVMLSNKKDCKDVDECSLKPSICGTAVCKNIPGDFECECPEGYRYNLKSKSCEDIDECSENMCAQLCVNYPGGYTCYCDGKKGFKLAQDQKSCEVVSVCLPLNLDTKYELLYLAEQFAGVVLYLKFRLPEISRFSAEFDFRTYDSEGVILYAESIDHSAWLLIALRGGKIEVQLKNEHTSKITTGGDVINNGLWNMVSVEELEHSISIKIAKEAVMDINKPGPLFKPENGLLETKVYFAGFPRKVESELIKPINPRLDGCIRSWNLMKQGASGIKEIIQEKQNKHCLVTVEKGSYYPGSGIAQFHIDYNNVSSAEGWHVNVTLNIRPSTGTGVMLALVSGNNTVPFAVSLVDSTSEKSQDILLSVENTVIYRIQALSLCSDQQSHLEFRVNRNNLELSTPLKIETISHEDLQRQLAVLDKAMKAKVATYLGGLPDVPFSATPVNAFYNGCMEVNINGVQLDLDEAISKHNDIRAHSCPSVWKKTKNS
Kind of test: cell-based or functional assay.

Test [2] has as its target T1, recombinant human PS (rhPS). As to the kind of experiment: ratio of ELISA-derived KD values, reference PS003. How it is done: (§1) To further compare the ability of PS003 and PS003biv to bind to PS, the affinity of PS003 and PS003biv for rhPS was estimated as described (Beatty et al. J Immunol Methods 1987), by obtaining binding curves on rhPS immobilized at increasing concentrations (0.6, 1.25, 2.5 and 5 μg/mL in TBS containing 5 mM CaCl₂) in three individual experiments done in simplicate. For each nanobody, the dissociation constant (KD) was determined by using a formula based on the Law of Mass Action.
For orientation: ELISA stands for enzyme-linked immunosorbent assay.

Test [3] deals with T2, recombinant human Gas6 (rhGas6) (human, UniProt Q14393 49-678, limits assumed).
T2 sequence (looked up): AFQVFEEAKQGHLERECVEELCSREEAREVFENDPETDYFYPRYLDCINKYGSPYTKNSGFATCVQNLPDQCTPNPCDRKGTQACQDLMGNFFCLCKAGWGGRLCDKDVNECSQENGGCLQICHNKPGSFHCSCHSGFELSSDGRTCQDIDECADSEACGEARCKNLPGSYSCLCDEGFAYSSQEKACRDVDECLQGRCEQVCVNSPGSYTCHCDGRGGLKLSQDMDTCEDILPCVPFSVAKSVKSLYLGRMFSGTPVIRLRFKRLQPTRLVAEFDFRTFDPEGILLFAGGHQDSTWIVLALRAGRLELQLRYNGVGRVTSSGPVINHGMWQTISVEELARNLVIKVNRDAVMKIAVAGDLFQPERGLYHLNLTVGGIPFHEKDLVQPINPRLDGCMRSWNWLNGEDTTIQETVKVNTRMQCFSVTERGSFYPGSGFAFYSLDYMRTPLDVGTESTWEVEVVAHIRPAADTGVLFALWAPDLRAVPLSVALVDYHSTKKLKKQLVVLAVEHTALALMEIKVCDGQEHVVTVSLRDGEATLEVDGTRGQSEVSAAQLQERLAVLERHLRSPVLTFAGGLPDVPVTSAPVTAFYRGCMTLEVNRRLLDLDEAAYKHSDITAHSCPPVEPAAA
As to the kind of experiment: direct ELISA on immobilized rhGas6, anti-His6 detection. How it is done:
FIG. 7: Epitope mapping of PS003biv and specificity of PS003biv for PS. Recombinant human PS (rhPS), a recombinant form of the PS SHBG-like region alone (rSHBG)), recombinant human Gas6 (rhGas6), or BSA (60 μL at 10 μg/mL in TBS containing 5 mM CaCl₂) were immobilized onto ELISA wells, and the binding of PS003biv (0.5 nM in TBS-0.1% Tween-5 mM CaCl₂)) was analyzed using a peroxidase-conjugated polyclonal anti-His6 tag antibody. The results are expressed as the percentage of the Abs_{450 nm} obtained on rhPS. Three individual experiments were done in simplicate.
Epitope mapping of PS003biv and specificity of PS003biv for PS rhPS, a recombinant form of the PS SHBG-like region alone (rSHBG) (Saposnik et al. 2003), recombinant human Gas6 (rhGas6), or BSA (60 μL at 10 μg/mL in 50 mM Tris, 150 mM NaCl, pH 7.4 (TBS) containing 5 mM CaCl₂) were immobilized onto 96-well NUNC Maxisorp plates, for 16 h at 4° C. Wells were washed with 3×200 μL of washing buffer (TBS containing 5 mM CaCl₂ and 0.1% Tween-20) and wells were blocked for 1 h at room temperature with TBS containing 5 mM CaCl₂ and 5% BSA. Wells were washed with 3×200 μL of washing buffer and 0.5 nM PS003biv (in TBS containing 5 mM CaCl₂, 0.1% Tween-20 and 2% BSA, 50 μL/well) were incubated for 1 h at room temperature. […] The results are expressed as the percentage of the Abs_{450 nm} obtained on rhPS. […]

In test [4] the target is T3, recombinant murine PS (rmPS) (murine, UniProt Q08761 42-675).
T3 construct: also called recombinant murine protein S
T3 sequence (looked up): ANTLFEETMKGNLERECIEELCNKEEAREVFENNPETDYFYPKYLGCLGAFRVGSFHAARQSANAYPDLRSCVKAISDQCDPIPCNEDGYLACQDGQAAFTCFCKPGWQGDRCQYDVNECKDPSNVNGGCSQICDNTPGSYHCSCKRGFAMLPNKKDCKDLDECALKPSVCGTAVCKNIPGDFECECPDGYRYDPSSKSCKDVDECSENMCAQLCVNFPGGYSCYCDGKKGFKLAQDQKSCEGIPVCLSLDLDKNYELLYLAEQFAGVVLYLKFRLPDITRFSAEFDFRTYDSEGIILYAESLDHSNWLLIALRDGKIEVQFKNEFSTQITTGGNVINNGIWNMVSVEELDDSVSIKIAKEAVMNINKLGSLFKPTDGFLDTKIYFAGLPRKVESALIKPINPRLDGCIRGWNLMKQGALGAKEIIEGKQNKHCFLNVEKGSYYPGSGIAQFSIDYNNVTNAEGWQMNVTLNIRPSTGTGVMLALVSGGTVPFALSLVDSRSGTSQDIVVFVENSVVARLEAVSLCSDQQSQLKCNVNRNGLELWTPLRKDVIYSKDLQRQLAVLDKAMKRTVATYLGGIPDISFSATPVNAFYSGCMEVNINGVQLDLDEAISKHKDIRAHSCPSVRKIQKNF
Kind of test: direct ELISA on immobilized rmPS (legend of FIG. 11). The text has this: FIG. 11: Comparison of PS003biv and PS004biv binding to immobilized recombinant murine PS in direct ELISA. PS004biv is an in-house anti-human PS nanobody generated from a monovalent nanobody (PS004) identified after a selection on rhPS immobilized onto ELISA wells. PS004biv strongly binds to rhPS in direct ELISA but, in contrast to PS003biv, its epitope is localized within the N-terminal part of PS and not within the SHBG-like domain of PS (data not shown). The binding of PS003biv and PS004biv to immobilized rmPS was analyzed by ELISA.
As for rhPS, recombinant murine PS (rmPS) was expressed in HEK293 cells in the presence of 10 μg/mL vitamin K1, and purified by a two-step anion-exchange chromatography, as previously described (Fernandez et al. 2009). rmPS (60 μL at 10 μg/mL in TBS containing 5 mM CaCl₂) was immobilized onto 96-well NUNC Maxisorp plates, for 16 h at 4° C. Wells were washed with 3×200 μL of washing buffer (TBS containing 5 mM CaCl₂) and 0.1% Tween-20) and wells were blocked for 1 h at room temperature with TBS containing 5 mM CaCl₂ and 5% BSA. Wells were washed with 3×200 μL of washing buffer and increasing concentrations of PS003biv and PS004biv (0-50 nM in TBS containing 5 mM CaCl₂ and 1% BSA, 50 μL/well) were incubated for 1 h at room temperature. […]

Test [5] addresses T1, recombinant human PS (rhPS). As to the kind of experiment: ELISA on rhPS immobilized at 0.6, 1.25, 2.5 and 5 µg/mL, method of Beatty et al. 1987. On the procedure: as §1, with “FIG. 6: Comparison of PS003 and PS003biv binding to immobilized PS in direct ELISA. rhPS (60 μL at 2.5 μg/mL in TBS containing 5 mM CaCl₂)) was immobilized onto ELISA wells, and the binding of PS003 and PS003biv (0-200 nM) was analyzed with a peroxidase-conjugated polyclonal anti-His6 tag antibody. Three individual experiments were done in simplicate, and the results are expressed as percentage of maximal binding for each nanobody. […] To” for “To”, “obtaining similar” for “obtaining”
To further compare the ability of PS003 and PS003biv to bind to PS, the affinity of PS003 and PS003biv for rhPS was estimated as described (Beatty et al. J Immunol Methods 1987), by obtaining binding curves on rhPS immobilized at increasing concentrations (0.6, 1.25, 2.5 and 5 μg/mL in TBS containing 5 mM CaCl₂) in three individual experiments done in simplicate. […]

For test [6], the target named is T2, recombinant human Gas6 (rhGas6). Kind of test: direct ELISA on immobilized protein, anti-HA detection. How it is done: Vitamin K-dependent Gas6 is highly homologous to PS (47% overall homology) and, in contrast to other vitamin K-dependent proteins, also contains a SHBG-like domain. To further confirm the specificity of PS003 to PS, rhPS and rh Gas6 (60 μL, at 10 μg/mL in TBS containing 5 mM CaCl₂) were immobilized onto 96-well NUNC Maxisorp plates for 16 h at 4° C. Wells were washed with 3×200 μL of washing buffer (TBS containing 5 mM CaCl₂ and 0.1% Tween-20) and wells were blocked for 1 h at room temperature in TBS containing 5 mM CaCl₂ and 5% BSA. Wells were washed with 3×200 μL of washing buffer and increasing concentrations of PS003 (0-200 nM in TBS containing 5 mM CaCl₂ and 1% BSA, 50 μL/well) was incubated for 1 h at room temperature. Wells were washed with 3×200 μL of washing buffer, and a peroxidase-conjugated polyclonal anti-HA tag antibody (Abcam, 1 μg/mL in TBS containing 5 mM CaCl₂ and 1% BSA, 50 μL/well) was incubated for 1 h at room temperature. Wells were washed with 3×200 μL of washing buffer and 50 μL of TMB was added. Reactions were stopped by the addition of 50 μL of 2M H₂SO₄.

Broadly, the Kd is the constant that tells how readily two partners part at equilibrium.

B1: PS003biv (VHH)
chain: QVQLQESGGGLVQAGGSLRLSCAASGRTFSSYAMGWVRQAPGKEREFVAAISYNGGRTNYADSVKGRFTISRDNAKNTGYLQMNSLKPEDTAVYYCAANPRMWGSVDFRSWGQGTQVTVSSGGGSGGGSGGGSGGGSQVQLQESGGGLVQAGGSLRLSCAASGRTFSSYAMGWVRQAPGKEREFVAAISYNGGRTNYADSVKGRFTISRDNAKNTGYLQMNSLKPEDTAVYYCAANPRMWGSVDFRSWGQGTQVTVSS
notes: also called bivalent PS003; not shown: N-terminal His6-tag from the pET28 format; C-terminal haemagglutinin (HA)-tag
As for B1, the “clotting times in APTT-based APC-cofactor activity plasma clotting assay (STACLOT PS); 6 nM rhPS, 2 µM nanobody” value in test [1] turned out to be 3.6 fold. Besides, in test [2], the “fold higher affinity than PS003” value stood at 1.9 fold. The binding result is “no binding (tested: 0.5 nM)” in test [3] and “binds” in test [4]. Further, the dissociation constant (Kd) in test [5] amounted to 13.8 nM.

B2: PS003 (VHH)
VHH: QVQLQESGGGLVQAGGSLRLSCAASGRTFSSYAMGWVRQAPGKEREFVAAISYNGGRTNYADSVKGRFTISRDNAKNTGYLQMNSLKPEDTAVYYCAANPRMWGSVDFRSWGQGTQVTVSS
notes: Llama VHH selected by phage display on rhPS; Purified form expressed from pET28 in E. coli with N-terminal His6-tag and C-terminal HA-tag; also called PS003 nanobody; monovalent PS003; not shown: N-terminal His6-tag from the pET28 format; C-terminal haemagglutinin (HA)-tag
Consider B2, for which the binding result in test [6] is reported as “no binding (tested: 20 nM)”. Moreover, the “clotting times in APTT-based APC-cofactor activity plasma clotting assay (STACLOT PS); 6 nM rhPS, 2 µM nanobody” value in test [1] came out at 2.8 fold. Also, in test [5], the dissociation constant Kd is 26.8 nM.
